Test results from US20240190986A1 (ZHEJIANG NANOMAB TECHNOLOGY CENTER, published 2024).

Legend:
MSLN.Fc protein = target: T1, MSLN.Fc protein (human, UniProt Q13421 296-598, limits assumed); experiment: ELISA, antigen coated, TG1 supernatant
T1 construct: also called MSLN·hFc; MSLN protein; not shown: human IgG Fc fragment

MD50 protein = target: T2, MD50 protein; experiment: ELISA, antigen coated, TG1 supernatant
T2 construct: range 487-580; also called proximal membrane fragment of mesothelin
T2 sequence (Q13421 495-588): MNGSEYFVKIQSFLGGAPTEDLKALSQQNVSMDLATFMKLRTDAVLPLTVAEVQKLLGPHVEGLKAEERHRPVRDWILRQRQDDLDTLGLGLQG

MSLN·His protein = target: T3, MSLN·His protein (human, UniProt Q13421 296-580, limits assumed); experiment: SPR (Biacore), antibody captured on protein A, MSLN·His as analyte
T3 construct: Bought protein; also called human MSLN·His antigen; not shown: His tag
T3 sequence (Q13421 other isoform, or with tags, fused parts or gaps limits assumed): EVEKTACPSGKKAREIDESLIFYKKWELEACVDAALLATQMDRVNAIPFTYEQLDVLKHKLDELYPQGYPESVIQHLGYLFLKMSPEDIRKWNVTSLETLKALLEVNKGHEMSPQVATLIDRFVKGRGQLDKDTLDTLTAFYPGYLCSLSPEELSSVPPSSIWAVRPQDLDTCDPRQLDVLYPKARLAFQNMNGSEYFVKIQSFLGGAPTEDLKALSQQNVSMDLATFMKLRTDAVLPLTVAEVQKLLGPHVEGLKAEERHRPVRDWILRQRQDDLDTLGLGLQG
Text: Referring to the method of humanizing nanoantibodies (J. Biol. Chem. 2009; 284: 3273-3284), M2339 was humanized using the method of CDR region transplantation. In IgBLAST (http://www.ncbi.nlm.nih.gov/igblast/), germline with high homology with M2339 was selected as the template in the database. Biacore was used to detect the affinity of the antibody before and after humanization. The purified antibody was flowed through the sensor chip pre-fixed with protein A, and the antibody was captured by protein A. Then five different concentrations of MSLN·His protein were used as the mobile phase, and the association time and dissociation time were 30 min and 60 min, respectively. The binding rate (ka), dissociation rate (kd), and equilibrium constant (kd) were analyzed using Biacore Evaluation Software 2.0 (GE).

T1 sequence (Q13421 other isoform, or with tags, fused parts or gaps limits assumed): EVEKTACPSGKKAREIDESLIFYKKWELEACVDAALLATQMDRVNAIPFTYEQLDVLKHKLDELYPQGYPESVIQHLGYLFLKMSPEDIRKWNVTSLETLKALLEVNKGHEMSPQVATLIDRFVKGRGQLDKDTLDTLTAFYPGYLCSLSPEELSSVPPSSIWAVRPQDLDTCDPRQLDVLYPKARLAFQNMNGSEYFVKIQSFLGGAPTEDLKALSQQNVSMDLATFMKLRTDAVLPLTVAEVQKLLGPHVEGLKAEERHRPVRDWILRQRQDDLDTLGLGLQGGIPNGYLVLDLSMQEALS

ELISA (OD450) (MSLN.Fc protein) | ELISA (OD450) (MD50 protein) | Kd (MSLN·His protein) [nM] | koff (MSLN·His protein) [s⁻¹] | kon (MSLN·His protein) [M⁻¹ s⁻¹] | Binder
1.18 | 1.03 |  |  |  | M005 (VHH, Nanoantibody in TG1 supernatant in the screening ELISA; also called clone M005) VHH: EVQLVESGGGWVQSGGSLRLACAASGSSFGLNVVGWYRQAPDKQRELVASIGNGGRTTDYADSVKGRFTISSDNAKNTVFLQMNDLKPEDTAVYYCHLRASVTKGYWGQGTQVTVSS
1.95 | 0.926 |  |  |  | M126 (VHH, Nanoantibody in TG1 supernatant in the screening ELISA; also called clone M126) VHH: EVQLVESGGGWVQSGGSLRLACAASGDSFGLNVVGWYRLAPDKQRELVASIGNGGRTTDYADSVKGRFTISSDNAKNTVFLQMNDLKPEDTAMYYCHLRVSVTEGYWGQGTQVTVSS
2.75 | 2.09 |  |  |  | M010 (VHH, Nanoantibody in TG1 supernatant in the screening ELISA; also called clone M010) VHH: QVQLVESGGGLVQAGGSLRLSCAASGSVSSINAMGWYRQGTGEVRKLVATMGSGGNTYYADSVKGRFFITRDYSKNTVSLQMNNLTPEDSATYYCAADRFGASIHEVDYWGKGTLVTVSS
1.41 | 1.72 |  |  |  | M032 (VHH, Nanoantibody in TG1 supernatant in the screening ELISA; also called clone M032) VHH: EVQLVESGGGSVQAGGSLKISCAASGSVIDIGAMGWYRHITEKERKLVATINAGGNTYYADSVKGRFTISRDNAKYTVYLQMNSLKPEDTAMYYCAAEDINYTGTEAYYWGQGTQVTVSS
2.72 | 0.512 |  |  |  | M050 (VHH, Nanoantibody in TG1 supernatant in the screening ELISA; also called clone M050) VHH: EVQLQESGGGLVQAGGSLRLSCAASGAVSSINAMGWYRQTPEKVRKLVATMGSGGNTYYADSVKGRFTISRDYAKNTVALQMNNLIPEDTAVYYCAADKFGADIHEVDYWGKGTLVTVSS
1.98 | 2.07 |  |  |  | M047 (VHH, Nanoantibody in TG1 supernatant in the screening ELISA; also called clone M047) VHH: QVQLVETGGGSVQAGGSLRLSCAASGSIASIDAMGWYRQVPGKEWERELVATISSSNSDNKYYKDSVKGRFTISTNIAKNTWYLQMNNLKPEDTAMYYCAAEDYDTKDRFWGQGTQVTVSS
0.938 | 2.05 |  |  |  | M012 (VHH, Nanoantibody in TG1 supernatant in the screening ELISA; also called clone M012) VHH: QVQLVESGGDLVQTGGSLRLSCVVSGSTFAINAMGWYRQAPGKERELVAAISSGGDSTHYADDVKGRFTISRDNAENTMYLQMKSLKPEDTAVYVCNARGCRDFHNPQALCVLRDYWGQGTQVTVSS
1.72 | 1.35 |  |  |  | M001 (VHH, Nanoantibody in TG1 supernatant in the screening ELISA; also called clone M001) VHH: EVQLVESGGGLVQAGGSLRLSCAASGSIFNINAMGWYRQAPGKEWERELVATISSSNSDNTYYKDSVKGRFTISTNTAKNTWYLQMNSLKPEDTAMYYCAAENYDRKDRYWGQGTQVTVSS
2.38 | 1.73 |  |  |  | M003 (VHH, Nanoantibody in TG1 supernatant in the screening ELISA; also called clone M003) VHH: QVQLVESGGGLVQAGGSLRLSCTASGNIFSINAMGWYRQPPGKEWERELVATISSTNSDNTYYKESVKGRFTISTNTAKNTWYLQMNSLKPEDTAMYYCAAENFDRKDRYWAQGTQVTVSS
 |  | 59.5 | 0.00608 | 102000 | M2339-z11-1 (antibody, IgG4, V domains shown, Humanized variant of M2339) VH: EVQLVASGGGLVQPGGSLRLSCALSGFTLRELDEFAIGWFRQAPGKEREGVSCISGTGGITHYADSVKGRFTISRDNSKTTVYLQMNSLRAEDTAVYYCAADERCTDRLIRPPTYWGQGTQVTVSS
 |  | 47.4 | 0.00824 | 174000 | M2339-z11-6 (antibody, IgG4, V domains shown, Humanized variant of M2339) VH: EVQLVASGGGLVQPGGSLRLSCALSGFTLRELDEFAIGWFRQAPGKEREGVSCISGTGGITHYADSVKGRFTISRDNSKTTVYLQMNSLRSEDTAVYYCAADERCTDRLIRPPTYWGQGTQVTVSS
 |  | 14.9 | 0.00119 | 80000 | M2339-z11-4 (antibody, IgG4, V domains shown, Humanized variant of M2339) VH: EVQLGASGGGLVQPGGSLRLSCALSGFTLRELDEFAIGWFRQAPGKEREGVSCISGTGGITHYADSVKGRFTISRDNSKTTVYLQMNSLRAEDTAVYYCAADERCTDRLIRPPTYWGQGTQVTVSS
 |  | 2.78 | 0.000132 | 47400 | M2339-z11-3 (antibody, IgG4, V domains shown, Humanized variant of M2339) VH: ELQLVASGGGLVQPGGSLRLSCALSGFTLRELDEFAIGWFRQAPGKEREGVSCISGTGGITHYADSVKGRFTISRDNSKTTVYLQMNSLRAEDTAVYYCAADERCTDRLIRPPTYWGQGTQVTVSS
 |  | 0.142 | 9.29e-06 | 65200 | M2339-z11-13 (antibody, IgG4, V domains shown, Humanized variant of M2339) VH: QLQLGASGGGLVQPGGSLRLSCALSGFTLRELDEFAIGWFRQAPGKEREGVSCISGTGGITHYADSVKGRFTISRDNSKTTVYLQMNSLNSEDTAVYYCAADERCTDRLIRPPTYWGQGTQVTVSS
 |  | 1.3 | 5.18e-05 | 39800 | M2339-z11-7 (antibody, IgG4, V domains shown, Humanized variant of M2339) VH: ELQLGASGGGLVQPGGSLRLSCALSGFTLRELDEFAIGWFRQAPGKEREGVSCISGTGGITHYADSVKGRFTISRDNSKTTVYLQMNSLRAEDTAVYYCAADERCTDRLIRPPTYWGQGTQVTVSS
 |  | 0.239 | 9.81e-06 | 41000 | M2339-z11-10 (antibody, IgG4, V domains shown, Humanized variant of M2339) VH: QLQLVESGGGLVQPGGSLRLSCALSGFTLRELDEFAIGWFRQAPGKEREGVSCISGTGGITHYADSVKGRFTISRDIAKTTVYLQMNSLNSEDTAVYYCAADERCTDRLIRPPTYWGQGTQVTVSS
 |  | 0.16 | 1.14e-05 | 71000 | M2339-z11-15 (antibody, IgG4, V domains shown, Humanized variant of M2339) VH: QLQLGASGGGLVQPGGSLRLSCALSGFTLRELDEFAIGWFRQAPGKEREGVSCISGTGGITHYADSVKGRFTISRDIAKTTLYLQMNSLNSEDTAVYYCAADERCTDRLIRPPTYWGQGTQVTVSS
 |  | 12.2 | 0.00102 | 83800 | M2339-z11-12 (antibody, IgG4, V domains shown, Humanized variant of M2339) VH: EVQLGASGGGLVQPGGSLRLSCALSGFTLRELDEFAIGWFRQAPGKEREGVSCISGTGGITHYADSVKGRFTISRDIAKTTVYLQMNSLNSEDTAVYYCAADERCTDRLIRPPTYWGQGTQVTVSS
 |  | 0.279 | 1.74e-05 | 62300 | M2339-z11-2 (antibody, IgG4, V domains shown, Humanized variant of M2339) VH: QVQLVASGGGLVQPGGSLRLSCALSGFTLRELDEFAIGWFRQAPGKEREGVSCISGTGGITHYADSVKGRFTISRDNSKTTVYLQMNSLRAEDTAVYYCAADERCTDRLIRPPTYWGQGTQVTVSS
 |  | 0.361 | 1.6e-05 | 44300 | M2339-z11-8 (antibody, IgG4, V domains shown, Humanized variant of M2339) VH: QLQLGESGGGLVQPGGSLRLSCALSGFTLRELDEFAIGWFRQAPGKEREGVSCISGTGGITHYADSVKGRFTISRDIAKTTVYLQMNSLNSEDTAVYYCAADERCTDRLIRPPTYWGQGTQVTVSS
 |  | 0.274 | 1.18e-05 | 43000 | M2339-z11-11 (antibody, IgG4, V domains shown, Humanized variant of M2339) VH: QLQLGASGGGLVQPGGSLRLSCAASGFTLRELDEFAIGWFRQAPGKEREGVSCISGTGGITHYADSVKGRFTISRDIAKTTVYLQMNSLNSEDTAVYYCAADERCTDRLIRPPTYWGQGTQVTVSS
 |  | 0.228 | 1.01e-05 | 44400 | M2339-z11-14 (antibody, IgG4, V domains shown, Humanized variant of M2339) VH: QLQLGASGGGLVQPGGSLRLSCALSGFTLRELDEFAIGWFRQAPGKEREGVSCISGTGGITHYADSVKGRFTISRDIAKNTVYLQMNSLNSEDTAVYYCAADERCTDRLIRPPTYWGQGTQVTVSS
 |  | 3.98 | 0.000156 | 39300 | M2339-z11-17 (antibody, IgG4, V domains shown, Humanized variant of M2339) VH: ELQLGASGGGLVQPGGSLRLSCALSGFTLRELDEFAIGWFRQAPGKEREGVSCISGTGGITHYADSVKGRFTISRDNSKNTLYLQMNSLRAEDTAVYYCAADERCTDRLIRPPTYWGQGTQVTVSS
 |  | 0.0961 | 6.52e-06 | 67800 | M2339-z11-16 (antibody, IgG4, V domains shown, Humanized variant of M2339) VH: QLQLGASGGGLVQPGGSLRLSCALSGFTLRELDEFAIGWFRQAPGKEREGVSCISGTGGITHYADSVKGRFTISRDIAKTTVYLQMNSLRAEDTAVYYCAADERCTDRLIRPPTYWGQGTQVTVSS
 |  | 37.7 | 0.00878 | 233000 | M2339-z11-5 (antibody, IgG4, V domains shown, Humanized variant of M2339) VH: EVQLVASGGGLVQPGGSLRLSCALSGFTLRELDEFAIGWFRQAPGKEREGVSCISGTGGITHYADSVKGRFTISRDNSKTTVYLQMNSLNAEDTAVYYCAADERCTDRLIRPPTYWGQGTQVTVSS
 |  | 0.143 | 1.2e-05 | 83800 | M2339-z11-9 (antibody, IgG4, V domains shown, Humanized variant of M2339) VH: QLQLVASGGGLVQPGGSLRLSCALSGFTLRELDEFAIGWFRQAPGKEREGVSCISGTGGITHYADSVKGRFTISRDIAKTTVYLQMNSLNSEDTAVYYCAADERCTDRLIRPPTYWGQGTQVTVSS
2.2 | 2.04 |  |  |  | M044 (VHH, Nanoantibody in TG1 supernatant in the screening ELISA; also called clone M044; M044 antibody) VHH: QVQVVESGGGFVQAGGSLRLSCAASTPIISIAYMGWYRQISEKERQLVATINSGGKTYYADSVKGRFTISRDNAKNTLYLQMNMLKPEDTGMYYCAASNKDYNDYDPDWGQGTQVTVSS
